Assay [1] deals with RPRD1B CTD interaction domain (CID), residues 2-135 (human) (UniProt Q9NQG5). Briefly: ITC.
The target of assay [2] is RPRD1A CTD interaction domain (CID), residues 2-137 (human) (UniProt Q96P16). The assay is described as follows: ITC.
Assay [3] concerns the target RPRD2 CTD interaction domain (CID), residues 15-161 (human) (UniProt Q5VT52). The assay is described as follows: ITC.
In assay [4] the target is RPRD1B coiled-coil domain (solution experiments) (human) (UniProt Q9NQG5). The assay is described as follows: AUC.
The subject of assay [5] is RPAP2. Briefly: In vitro phosphatase ELISA on biotinylated CTD peptides. The class given is biochemical, human. To be noted: Supplementary Fig. 4d. In general terms: In an ELISA, binding on a coated surface is turned into a signal by an enzyme label.
Assay [6] concerns the target RPRD1B coiled-coil domain (human) (UniProt Q9NQG5). The assay is described as follows: AUC.
The target is the same in assay [7]. Briefly: AUC. This is another data set of the same source.
Assay [8] deals with RPAP2. The assay is described as follows: Phosphatase assay with pNPP substrate. To be noted: unpublished data. The assay is classed as biochemical, human.
A further assay deals with RPAP2 (1-334). Briefly: In vitro DiFMUP phosphatase assay. The class given is biochemical, human. To be noted: 10 μM DiFMUP, 50 mM 3,3-dimethylglutaric acid pH 6.5, 37°C, fluorescence every 20 min for 2 hours.
The target in another assay is T1, RPRD1B CID (Homo sapiens, UniProt Q9NQG5).
T1 sequence (Q9NQG5 2-135): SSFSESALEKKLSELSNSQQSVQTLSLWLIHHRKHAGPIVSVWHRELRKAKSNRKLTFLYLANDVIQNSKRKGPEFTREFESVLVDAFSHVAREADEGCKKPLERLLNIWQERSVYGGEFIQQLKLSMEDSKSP
The assay is described as follows: ITC binding of CTD peptides to RPRD1B CID. To be noted: ratio of Kd values of Table 1.

The target of the next assay is T2, RPRD1A CID (Homo sapiens, UniProt Q96P16).
T2 sequence (Q96P16 2-137): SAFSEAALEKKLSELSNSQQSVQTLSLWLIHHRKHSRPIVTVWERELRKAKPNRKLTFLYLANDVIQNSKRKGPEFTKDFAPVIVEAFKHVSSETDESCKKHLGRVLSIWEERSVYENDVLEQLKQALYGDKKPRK
Briefly: ITC binding of CTD peptides to RPRD1A CID. The conditions noted are these: ratio of Kd values of Table 1.

The target in another assay is T3, RPRD2 CID (Homo sapiens, UniProt Q5VT52).
T3 sequence (Q5VT52 15-161): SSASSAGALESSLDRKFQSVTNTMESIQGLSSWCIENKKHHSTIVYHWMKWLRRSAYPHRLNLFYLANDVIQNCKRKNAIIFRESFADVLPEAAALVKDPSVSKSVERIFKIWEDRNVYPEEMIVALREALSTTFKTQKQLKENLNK
Briefly: ITC binding of CTD peptides to RPRD2 CID. To be noted: ratio of Kd values of Table 1.

A further assay concerns the target T4, RPRD1A CID R106A (human, UniProt Q96P16 2-137, R106A).
T4 sequence: T2 sequence (Q96P16 2-137) with R105A
Briefly: ITC.

The source of these data is paper PMC4124035 (Nature structural & molecular biology, 2014).

Where a chain is given by its changes, count along the chain named. Numbers in names are those of the source. Like-named read-outs stand apart in the source and are kept apart here.

The Kd is the concentration at which binding is half-saturated. Read a low Kd as a tighter complex. Take S2,5P CTD peptide: the Kd in assay [1], in assay [2] and in [3] was above 1000 µM throughout.

On to “RPRD1B coiled-coil domain (solution experiments) (from UniProt Q9NQG5 137-326) (domain or fragment)”, for which, in assay [4], the percent dimer turned out to be 89.6%.

For the molecule `[O]=[V]([O-])([O-])[O-]` [vanadate], the “inhibition of RPRD1A-dependent S5 dephosphorylation by RPAP2” value with RPAP2 [5] is recorded as “inhibited”.

As a reminder, the stoichiometry N is the number of molecules, sites or subunits per partner or assembly. In the case of “RPRD1B coiled-coil domain (from UniProt Q9NQG5 137-326) (domain or fragment)”, the stoichiometry N in [6] and in assay [7] was 2 throughout.

For S5P CTD peptide, the dissociation constant (Kd) in [1], in [2] and in assay [3] was above 1000 µM in each case.

`O=[N+]([O-])c1ccc(OP(=O)(O)O)cc1` [pNPP, para-nitrophenylphosphate]: the “phosphatase activity of RPAP2 on the substrate” value in the assay with RPAP2 [8] was “No measurable phosphatase activity”.

As to `Cc1cc(=O)oc2c(F)c(OP(=O)(O)O)c(F)cc12` [DiFMUP, 6,8-difluoro-4-methylumbelliferyl phosphate], the “dephosphorylation of the substrate by RPAP2 (1-334)” value with RPAP2 (1-334) was “dephosphorylated DiFMUP in a time- and dose-dependent manner”.

`C[C@@H](O)[C@H](NC(=O)[C@@H]1CCCN1C(=O)[C@H](COP(=O)(O)O)NC(=O)[C@H](Cc1ccc(O)cc1)NC(=O)[C@H](COP(=O)(O)O)NC(=O)[C@@H]1CCCN1C(=O)[C@H](CO)NC(=O)[C@@H](NC(=O)[C@@H]1CCCN1C(=O)[C@H](COP(=O)(O)O)NC(=O)[C@H](Cc1ccc(O)cc1)NC(=O)[C@H](CO)NC(=O)[C@@H]1CCCN1C(=O)[C@@H](N)CO)[C@@H](C)O)C(=O)N[C@@H](CO)C(=O)N1CCC[C@H]1C(=O)N[C@@H](COP(=O)(O)O)C(=O)N[C@@H](Cc1ccc(O)cc1)C(=O)N[C@@H](CO)C(=O)O` [S2,7P CTD]: the “fold increase of RPRD1B CID affinity compared to S2P CTD” value at RPRD1B CID worked out at 2.6 fold. For the same molecule, the “fold increase of RPRD1A CID affinity compared to S2P CTD” value at RPRD1A CID was 1.6 fold. Further, on RPRD2 CID, the “fold increase of RPRD2 CID affinity compared to S2P CTD” value was “remained unchanged”.

For the molecule S5,7P CTD peptide, the Kd in [1], in assay [2] and in assay [3] was above 1000 µM in each case.

As for S2,7P CTD peptide, the fold increase of affinity compared to S2P alone amounted to 2.6 fold in assay [1] and 1.6 fold in [2].

Consider SPSYSPTSPSYSPTSPSYS [19-mer S2P CTD peptide], for which the “fold reduction of binding against wild type” value in the assay with RPRD1A CID R106A is around 27 fold.
